Measurements published in paper PMC12531337 (Nature Communications, 2023).
Numbering of substitutions follows the chain as printed. Numbers in names are those of the source. Where “and” joins values, the source holds several entries; their conditions need not be identical. Identical values can stand only once.

T1: mCherry fusion FUS LC domain (UniProt P35637 2-214)
T1 sequence (looked up): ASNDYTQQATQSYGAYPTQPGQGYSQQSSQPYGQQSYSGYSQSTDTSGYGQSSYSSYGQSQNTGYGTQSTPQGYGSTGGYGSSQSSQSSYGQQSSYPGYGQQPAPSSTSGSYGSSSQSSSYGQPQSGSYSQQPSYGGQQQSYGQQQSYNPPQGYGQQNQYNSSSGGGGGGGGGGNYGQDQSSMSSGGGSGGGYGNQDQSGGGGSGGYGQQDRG

B1: mCherry fusion hnRNPA2 LC domain F291S mutant (domain or fragment, UniProt P22626-2 181-341, looked up)
chain: MQEVQSSRSGRGGNFGFGDSRGGGGNFGPGPGSNFRGGSDGYGSGRGFGDGYNGYGGGPGGGNFGGSPGYGGGRGGYGGGGPGYGNQGGGYGGGYDNYGGGNYGSGNYNDSGNYNQQPSNYGPMKSGNFGGSRNMGGPYGGGNYGPGGSGGSGGYGGRSRY
B2: GFP fusion ZEB2 ZnF6-8 (domain or fragment, UniProt O60315 999-1076, looked up)
chain: YACDLCDKTFQKSSSLLRHKYEHTGKRPHQCQICKKAFKHKHHLIEHSRLHSGEKPYQCDKCGKRFSHSGSYSQHMNH
B3: GFP:ZEB1-ZnF5-7 (domain or fragment, UniProt P37275 904-981, looked up)
chain: B2 chain with T9I, Q30E, Q32G, S48M
B4: GFP-fused ZnFs of KLF4 (domain or fragment)
chain: not shown
B5: GFP:ZEB2-ZnF1-4 (domain or fragment, UniProt O60315 211-334, looked up)
chain: LTCPYCDRGYKRLTSLKEHIKYRHEKNEENFSCPLCSYTFAYRTQLERHMVTHKPGTDQHQMLTQGAGNRKFKCTECGKAFKYKHHLKEHLRIHSGEKPYECPNCKKRFSHSGSYSSHISSKKC
B6: GFP:ZNF512B ZnF3-5 (domain or fragment, UniProt Q96KM6 540-653, looked up)
chain: LKCQHCRKQFKSKAGLNYHTMAEHSAKPSDAEASEGGEQEERERLRKVLKQMGRLRCPQEGCGAAFSSLMGYQYHQRRCGKPPCEVDSPSFPCTHCGKTYRSKAGHDYHVRSEH
B7: GFP:ZEB2-ZnF6-7 (domain or fragment, UniProt O60315 999-1049, looked up)
chain: YACDLCDKTFQKSSSLLRHKYEHTGKRPHQCQICKKAFKHKHHLIEHSRLH

Biological target: the molecule itself
Assay: AUC

| Binder | stoichiometry N |
| --- | --- |
| B1 | 2 and 3 |

These binders were tested against mCherry fusion TDP43 LC domain (UniProt Q13148 262-414) (assay: hydrogel binding assay).
Chain of mCherry fusion TDP43 LC domain (Q13148 262-414): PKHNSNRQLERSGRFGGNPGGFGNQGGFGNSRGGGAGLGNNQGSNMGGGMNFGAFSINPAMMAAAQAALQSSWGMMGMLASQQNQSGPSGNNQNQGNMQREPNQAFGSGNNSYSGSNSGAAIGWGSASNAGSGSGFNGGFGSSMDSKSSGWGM

| binding result | Binder |
| --- | --- |
| binds | B2 |

What follows are binders tested against mCherry fusion hnRNPA2 LC domain (UniProt P22626-2 181-341) (assay: hydrogel binding assay).

| binding result | Binder |
| --- | --- |
| binds | HQCQICKKAFKHKHHLIEHSRLH (domain or fragment, UniProt O60315 1027-1049, looked up) [GFP:ZEB2-ZnF7] |
| binds | B3 |
| binds | B2 |
| binds | HQCQICKKAFKHKHHLIEHSRLHSGEKPYQCDKCGKRFSHSGSYSQHMNH (domain or fragment, UniProt O60315 1027-1076, looked up) [GFP:ZEB2-ZnF7-8] |
| binds | YQCDKCGKRFSHSGSYSQHMNH (domain or fragment, UniProt O60315 1055-1076, looked up) [GFP:ZEB2-ZnF8] |
| binds | B4 |
| binds | B5 |
| binds | B6 |
| binds | FSCQFCKESFPGPIPLHQHERYLCK (domain or fragment, UniProt O60315 581-605, looked up) [GFP:ZEB2-ZnF5] |
| binds | B7 |
| binds | YACDLCDKTFQKSSSLLRHKYEH (domain or fragment, UniProt O60315 999-1021, looked up) [GFP:ZEB2-ZnF6] |

The binders below were run against T1, mCherry fusion FUS LC domain (assay: hydrogel binding assay).

| binding result | Binder |
| --- | --- |
| binds | B2 |
